Columns and labels:
[1] = 2 mg of alteplase or 10,000 U of urokinase, dwell 2 hours, up to two treatments; p=0.013; Haire et al.; cited from earlier work
[2] = Visual inspection of alteplase diluted in NS; type: physicochemical
Protocol: Alteplase (2 mg/vial rt-PA) was diluted to a concentration of 0.01, 0.025, 0.05, and 0.1 mg/mL final protein concentration in 0.9% NaCl (Normal Saline, NS)-containing IV bags (Baxter and/or Abbott, 250 mL). Specifically, rt-PA, protein bulk, was diluted to 1 mg/mL (50-mg vial formulation equivalent, 0.004% TWEEN 80™ surfactant) with filtered MILLI-Q™ water, or a 100-mg vial rt-PA was reconstituted to 1 mg/mL (0.008-0.011% TWEEN 80™ surfactant) with Sterile Water for Injection, USP (SWFI) using a 60-cc BD syringe and an 18 G needle directly inserted into the rubber septum of the vial at the center of the cake. The vial was gently mixed by slow inversions or rolling action until the cake was totally dissolved. IV diluent (0.9% NaCl, NS) was withdrawn and replaced with the same amount of the reconstituted or diluted 1 mg/mL rt-PA as follows:
After dilution into the IV bags (n=2 for each concentration), the bags were gently mixed by inversion (about 20-24 times). A 10-mL aliquot was withdrawn from the inlet port of the IV bag using a 10-cc BD syringe and 22 G needle. An aliquot (t=0) was dispensed directly into a 20-cc Type I clear glass vial for visual inspection. […]
Each aliquot was examined under a light box equipped with a black and white background. […] The color and clarity of the aliquots were recorded accordingly.

[3] = biological target: T1, in vitro clot consisting of plasminogen and fibrin (Homo sapiens, UniProt P00747+P02671+P02675+P02679); assay: Purified clot lysis activity for rt-PA; type: biochemical
T1 construct: Plasminogen kept frozen at or below −60° C. until use; purchased Biocell (fibrinogen); Calbiochem (thrombin)
T1 sequence (P00747 20-810 limits assumed): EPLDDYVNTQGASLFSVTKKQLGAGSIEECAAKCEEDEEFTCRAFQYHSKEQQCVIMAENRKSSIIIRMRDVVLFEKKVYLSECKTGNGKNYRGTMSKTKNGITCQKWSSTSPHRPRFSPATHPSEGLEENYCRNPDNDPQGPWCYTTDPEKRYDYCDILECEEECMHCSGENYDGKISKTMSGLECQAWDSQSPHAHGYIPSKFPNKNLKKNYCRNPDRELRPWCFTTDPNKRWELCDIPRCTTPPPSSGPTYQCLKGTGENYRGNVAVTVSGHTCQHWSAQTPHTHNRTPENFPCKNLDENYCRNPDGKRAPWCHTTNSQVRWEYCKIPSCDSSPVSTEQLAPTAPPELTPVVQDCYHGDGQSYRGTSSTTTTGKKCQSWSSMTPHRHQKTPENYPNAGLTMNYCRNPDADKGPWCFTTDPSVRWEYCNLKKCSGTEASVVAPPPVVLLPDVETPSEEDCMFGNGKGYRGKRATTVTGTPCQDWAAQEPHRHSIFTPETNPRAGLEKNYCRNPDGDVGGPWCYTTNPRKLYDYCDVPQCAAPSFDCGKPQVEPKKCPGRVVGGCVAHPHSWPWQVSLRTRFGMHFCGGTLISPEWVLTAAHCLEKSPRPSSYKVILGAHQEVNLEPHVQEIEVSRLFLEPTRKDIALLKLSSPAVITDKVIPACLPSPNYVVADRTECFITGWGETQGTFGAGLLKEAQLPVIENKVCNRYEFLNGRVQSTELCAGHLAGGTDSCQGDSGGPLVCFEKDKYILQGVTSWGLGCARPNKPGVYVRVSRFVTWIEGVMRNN
T1 sequence (P02671 36-629 limits assumed): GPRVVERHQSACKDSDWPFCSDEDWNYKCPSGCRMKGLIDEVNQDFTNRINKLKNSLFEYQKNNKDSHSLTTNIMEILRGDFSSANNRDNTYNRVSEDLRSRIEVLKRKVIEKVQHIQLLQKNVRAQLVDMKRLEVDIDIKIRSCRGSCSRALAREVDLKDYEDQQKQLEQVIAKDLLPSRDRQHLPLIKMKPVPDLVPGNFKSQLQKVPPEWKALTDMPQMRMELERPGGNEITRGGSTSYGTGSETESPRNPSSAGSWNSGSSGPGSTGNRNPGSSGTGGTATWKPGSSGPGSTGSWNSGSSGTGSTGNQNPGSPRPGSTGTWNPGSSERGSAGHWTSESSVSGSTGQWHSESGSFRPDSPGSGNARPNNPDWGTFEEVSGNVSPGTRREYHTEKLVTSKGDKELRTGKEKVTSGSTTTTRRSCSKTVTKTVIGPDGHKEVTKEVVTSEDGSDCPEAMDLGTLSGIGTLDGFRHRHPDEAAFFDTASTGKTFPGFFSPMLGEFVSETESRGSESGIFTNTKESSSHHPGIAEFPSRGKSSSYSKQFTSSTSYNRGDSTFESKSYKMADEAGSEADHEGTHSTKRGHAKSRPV
T1 sequence (P02675 45-491 limits assumed): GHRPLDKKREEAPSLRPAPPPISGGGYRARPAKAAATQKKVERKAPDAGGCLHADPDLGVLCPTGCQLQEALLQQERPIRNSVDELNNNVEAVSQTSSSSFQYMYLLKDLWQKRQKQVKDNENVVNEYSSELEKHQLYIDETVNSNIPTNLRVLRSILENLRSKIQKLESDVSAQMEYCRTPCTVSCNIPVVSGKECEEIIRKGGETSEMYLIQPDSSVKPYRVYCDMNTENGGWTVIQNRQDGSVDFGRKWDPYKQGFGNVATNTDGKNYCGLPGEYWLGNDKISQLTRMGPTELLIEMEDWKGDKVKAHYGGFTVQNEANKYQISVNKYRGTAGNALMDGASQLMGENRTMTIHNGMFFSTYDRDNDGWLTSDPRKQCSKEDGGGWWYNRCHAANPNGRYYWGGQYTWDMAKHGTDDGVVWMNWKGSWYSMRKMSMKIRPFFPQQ
T1 sequence (P02679 27-437 isoform P02679-2 limits assumed): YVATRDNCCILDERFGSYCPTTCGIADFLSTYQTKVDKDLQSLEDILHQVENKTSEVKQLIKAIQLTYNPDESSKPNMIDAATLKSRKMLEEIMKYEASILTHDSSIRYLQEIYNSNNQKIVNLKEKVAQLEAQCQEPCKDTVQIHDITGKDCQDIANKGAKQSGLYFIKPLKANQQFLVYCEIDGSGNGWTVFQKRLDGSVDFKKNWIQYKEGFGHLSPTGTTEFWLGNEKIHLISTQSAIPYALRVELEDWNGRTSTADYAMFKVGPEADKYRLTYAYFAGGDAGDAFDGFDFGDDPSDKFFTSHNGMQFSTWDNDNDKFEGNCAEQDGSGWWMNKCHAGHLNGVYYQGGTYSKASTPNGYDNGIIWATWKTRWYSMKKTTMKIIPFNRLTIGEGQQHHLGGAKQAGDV
Protocol: (7) Purified clot lysis activity for rt-PA. […] Samples were diluted to assay range (200-1000 ng/mL) in two concentrations with diluent. Dilutions were performed the day before the assay and diluted samples were stored at 2-8° C. until analysis the next day. rt-PA reference material was diluted similarly as an internal reference.
2. Purified Clot Lysis Test (Microcentrifugal Analyzer (Test 1) and Plate Reader (Test 2)):
The potency of the alteplase t-PA protein was assessed by the purified clot lysis assay described below. Samples were diluted to assay range (200-1000 ng/mL) in three or two concentrations with diluent. Dilutions were performed the day before the assay and diluted samples were stored at 2-8° C. until analysis the next day. Rt-PA reference material was diluted similarly as an internal reference.
The assay works as follows: Reagents are substances added to a solution of another substance to participate in a chemical reaction. In this case, contents of boat 1 will react with contents of boat 2 to form a standardized clot. […] As the clot breaks apart, there is a change in the absorbance (light) characteristics. The absorbance is plotted versus time. […]
The endpoint (lysis time) may be determined by a computer program or manually. For automatic calculation by computer, the endpoint is the time required to lyse the clot, which is determined automatically. For manual endpoint determination, the endpoint is defined as the first time point below 0.03 absorbance units where the change is less than 0.003 abs unit. Specifically, for manual determination, the endpoint was determined from the absorbance time data. The first absorbance point less than 0.0300 was located. The endpoint was determined as the time of the first absorbance value less than 0.0300 if the change in absorbance between the current absorbance and the subsequent absorbance was less than 0.0030. If the delta absorbance was greater than 0.0030, one moved to the next absorbance reading and determined the delta absorbance. […]
The mean lysis time for each standard curve point was calculated. […]

Substance	Catheters with function restored [1] [%]	Visual inspection ([2]; 0.1 mg/mL in NS, immediately after dilution and throughout the infusion period)	Visual inspection ([2]; diluted to 0.01, 0.025, and 0.05 mg/mL with NS, initially and after 24 hours of infusion (no filter) at room temperature)	Lytic activity in clot lysis effectiveness test ([3]; diluted down to 0.01 mg/mL in normal saline)	Lytic activity after storage ([3]; diluted to 0.01, 0.02, and 0.05% mg/mL in 0.9% NaCl IV bags, after 24 hours of storage at ambient conditions)	Specific activities by the clot-lysis activity assay ([3]; fractions collected over 24 hours, all concentrations in NS, in the majority of cases)
alteplase t-PA: tissue plasminogen activator in a native form such as ACTIVASE® alteplase t-PA; in Example 7 diluted in 0.9% NaCl	89	slightly cloudy solution	colorless, clear to slightly opalescent solutions	lytically active	lytically active	greater than 90%
urokinase	59					
